The data set can be described thus: label from the status in PepcDB records.

“MLMEIRESVKERIEEIIKEIAPQWEGEIELKETPDPKLGDFGTPIAFKLAKLLKRPPIEIAEKIVEKLKLNLPEGIKDVKAVNGYINVFIDYPHFARILINDILAKGDRFGSSEIGKGKKVIVEHTSVNPTKPLHMGHARNAILGDVMARILRFLGYEVEVQNYIDDLGIQFAQVYWGYLRLKEEFERIMNELRERGLKDNPIDHALGLLYVEVNRRLEDNPELENEIRDIMKKLESGELYGRKLAEEVVRAQMVTTYKLGVKYDLLVWESDIVRRKLFEIALELLSKNENFYIPSDGKYRGAFVMDLRKLFPDMKNPILVLRRSDGTATYTGKDIAYHLWKFGKIDVDLLYKEWDSTTWTTAPDGKSMPNKFGNANIVINVIGAEQKHPQLAIKYALQLLGFEDAAANLYHLAYEHVERPEGKFSGRKGTWVGFTVDEVIQEAVKRARELIEEKNPALSDEEKAEVAEKVGIGAIRYNLIKYSPDKKIIFRWEDVLNFEGESAPYIQYAHARCSSILRKAEEEGIKVDPETLFKNADFTKLSERERELVIMLSKFPRIVEQAGKDVKPHLIAWFANELASLFNKFYMDHPVLKAEEGVREARLLLVMAVEQVLKNALYLMGIEAPERM”: the protein production entry is “not failed”.

Regarding “MLMEVKALAHAKNDSVAVATDDLKEGEEIQVAFLDNNEKTKITTAEVIPLGHKISLKDIKKGENVIEYGEVIGAATKDIKRGEHVHIHNIKSLRW”, the protein production result is “not failed”. With “MLMPRRMKYRKQQRGRLKGATKGGDYVAFGDYGLVALEPAWITAQQIEAARVAMVRHFRRGGKIFIRIFPDKPYTKKPLEVRMGKGKGNVEGYVAVVKPGRVMFEVAGVTEEQAMEALRIAGHKLPIKTKIVRRDAYDEAQ”, the protein production entry is recorded as “not failed”. With “MLMSFILLISTSMILISVFSYVLIALIVLGIVLSLISLLSPRVSYVSSVYLIGLTVYLNPGFSLTQSLINTVPILGEINMLSGLLKTPVTSIISSLFSLALLNLGIKGYEIYLSKHADIVKLDSIIFSQHGLPKQANWNIVVNSEVKLLKSNEKLILSNTPEAKYELCPTLVDHKYYVPNKVTGLAFEGEVIRINYSPVDGVPYEKFRNCFTVFEVEGLPPDTSFVIEINGASLKLKDRKFAKLSLEPLYWKVNEIRISREDEEEIYEPDIKEGLTFRGGTVKINFRRKVIRYKTAKIPSIENWDPGIWVGQEVYGYRVIEVIGLGGNGYVMKVEKNGLLYAMKVLSVNKFTNSLEHFDNLLKESENLEKLSKDPRLVSIYGSFVDKNNIQSALAGDYTSYYKYPPAIIMEFMEGGTLFDLISRVDLVQSKYWQYIVKLVIKEIAKALTFLHKRGYVHLDVKPQNIFLKEKINGEPEVVYKILSSTPGIIKLGDLGSAVRVGEKITQATPAYSPPEQIEAVITGKGAQPSMDNYALGVTLYKLLTMKNLDYVNYLDKAFDEYIKGDPSIAMKYINMAKMSMVNFKPKLPHNTLPELANVVQGTLVVDPKRRLTSYDIVKILEG”, the protein production entry is reported as “failed”.

For the sequence “MLNADVKETIHYVDENGKELAGTYTKDVHYTRTATVHYDQNGNATVTYGEWKADGSFDKVANPDIDGYFTLDKGVDGKTVTDPQNQADFVENVIYYKTDQNVTPLEHHHHHH”, the protein production entry is on record as “not failed”.

For the sequence “MLNDGVYLAQARGMAGFVHAKLTVKDNKIVGVDLDLTTETPENKPKVEQQLKKEILTRQSADIDAVSGATFTSNGVKEAVQQTLKQAEKLEHHHHHH”, the protein production result is on record as “not failed”. For “MLNDILTGYGIFILEILTILLLILAVVGLIISYRQHNKSKVGELEIKDLSEEFNEQVRLLRDFNLSEEEQKQRTKAEKKAEKQNAKKRKEKLKKGETLEDEKKACVYVLDFCGDISASETTALREEISAILNVAKSEDEVLLRLESPGGIVHNYGFAASQLSRLKQKGIKLTVAVDKVAASGGYMMACVADKIVSAPFAVIGSIGVVAQIPNVHRLLKKHDVDVDVMTAGEFKRTVTVLGENTEKGKQKFQQELEETHKLFKQFVSQNRPCLDIDKIATGEHWFGQQAIALQLVDEISTSDDLILEKMKEKQVLNVKYRLKKSLIKKFGRQAEESAINIIHRYSTKQSRDFMYLEHHHHHH”, the protein production result is “failed”. Consider “MLNDKMYHGKGLRKGDLRLYHELYNLQVMKWPVNPLDVIIEKIKRREGNGVIADIGCGEARIAREFENVISLDLHPVGKDVIPCDMRRRIPLDDGSVDVAVCCLSMMVEDIAVPTKEINRILRNGGHWYIAEVRSRIPSVGLLERKFESLGFDVEHVDVSNAQFVLFVLQK”, for which the protein production entry is “failed”.

Turning to “MLNGDVTLRAWTNIWMFLIYGLAIFLEPIHNNIRHLPILVRGGIYSTLIIISEYITGSFLCFMLGTCPWHYSSGPFTIQGITRLDYFPYWLIAGLLFEKLHDALLKISINVEQSSS”, the protein production result was “failed”. For the sequence “MLNKFKKIVGVSVLVGCLGVLQAKNSLFVLPYEQKDALNSLVSGISNARESVKIAIYSFTHRDIARAIKSVASRGIKVQIIYDYESNHHNKQSTIGYLDKYPNTKVCLLKGLKAKNGNYYGIMHQKVAIIDDKIVFLGSANWSKNAFENNYEVLLKTDDTETILKAKSYYQKMLGSCVGF”, the protein production result is recorded as “failed”.

For the sequence “MLNLFILLLERVGLIILIAYILMNINHFKTMMNEREKRRSQWQLIIIFGCFSMISNFTGIQIRGDEIINGTVYNHLDPDASLANTRVLTIGVSGLIGGPFVALAVAVISGMYRVYIGGADAYIYLISSIFIALISGYFGYKAMRANRYPTIVKGACIGGTTEIIQMLCILLFSDNTEHAWTLVKLIAIPMISINSIGTAIFLSIILSTIKQEEETRAIQTHDVLQLANQTLPYFRSGLNEQSAKKAAEIILNLMRVSAVAITNRKDILTHVGVASDHHVAQKAIITNLSKRAIQSGTLKEAYSSEEIGCNHPGCPLEAAIVVPLRVKNDVVGTLKLYFTNKYDVNYSDKQLATGLAEIFSSQLELGQAETQSALIRDAEIKSLQAQVNPHFFFNAINTISALIRIDSEKARELLLQLSQFFRSNLQGARNNTISLEKELQQVESYLSLEQARYPDRFNVSFDIDRTCYGALVPPFAIQILVENAIKHAFKNRKYNNEIIVKAHKAQTGLVISVSDNGHGIPYEKLDKIGKTSVHSESGTGSALENLNRRLDGLFGYEASLQIHSDHQGTQVSCTIPYHNLEEEKIESNHCR”, the protein production result is given as “failed”. For the sequence “MLPASNGSVSLPQPKEWENGCRLGFIHMAAKGIVQVISAQVLSGTTLTLGWLGYVPLLIWAVSRVRWVELFTDRRRQHLLFGTVFCLFALWLVRRDFDTGVSYHFIGMTAVTLLLDWPLAVLGGFMAQLGLLALGRQDLAALGVNGLMLIGLPVLITEVCAIVVERAQPRNLFVYIFCSGFFPAALTVLVCVPAALGVLWLDGRFALPEWLSDFVGYLWLMMFPEAFINGMVISALVVFCPEWLETFNRTRYLQAPWKEDER”, the protein production entry is “failed”.

For the sequence “MLPAYIRIHDQIKKEIDEGLWKIGDRLPSERDLAERFEVSRMTLRQAITLLVEEGILERRVGSGTYIASSRVQEKMRGTTSFTEIVKSQGKTPSTKLISYRRVHPSEQEIKFLDIKPKSYIIRMERVRYADDIPVVFEVTAIPEKIIKSFKKEAITKHFFKTLTDHGFVIGKSQQTISASNANEMTADYLAISRGHAVLTLAQVSYFENGMPFEYVRSQYVGERFEFYLENK”, the protein production result is listed as “not failed”. In the case of “MLPLEPYLTQTSAVPQMSHFMCHSPTHKPQGLLPWAPFHQASVSLYPISPWPSESVCPPTCPGGASCWFPAGNAWDRVELGFLGFGAGGVSIAVPGFPLSCGQGCCAGGWLGHGARFPAKLRAFPQVIRRGWLTINNISLMKGGSKEYWFVLTAESLSWYKDEEEKEKKYMLPLDNLKIRDVEKGFMSNKHVFAIFNTEQRNVYKDLRQIELACDSQEDVDSWKASFLRAGVYPEKDQAENEDGAQENTFSMDPQLERQVETIRNLVDSYVAIINKSIRDLMPKTIMHLMINNTKAFIHHELLAYLYSSADQSSLMEESADQAQRRDDMLRMYHALKEALNIIGDISTSTVSTPVPPPVDDTWLQSASSHSPTPQRRPVSSIHPPGRPPAVRGPTPGPPLIPVPVGAAASFSAPPIPSRPGPQSVFANSDLFPAPPQIPSRPVRIPPGIPPGVPRRPPAAPSRPTIIRPAEPSLLD”, the protein production entry is “not failed”. As to “MLQQLFASPILSVQTLHPSYEDHASDVFLVQTKDEEVIVRSSKMTEEPNNDFWWGCKNLFGIDPRNVHHLEYIHELLKKHTNLPIPTILQKHVLNGRKYVSVEKLTGSTLQSFVGQSDSILFSLGKGLAEIHSFQAEFIGNPSGTFQVPLEEFKSHILKVSKELVNRFYSDNTSIRNAFSTFESQLSSLPTPKEATLVLIDMDPTQFLSDGTTITGLVDTEAYAVAPRELDFISLEYVFTEKEAHAFKQGYETIMPIPNLVECRHPYRYLYRLLSIQGSVELEKWLSHPSYF”, the protein production result is “failed”. With “MLQRTLSSIQIIGGVTQALFILSICLASINPPTEFTMRRTMAMSMRKYSSHSTPRMARIPTTFVVIVLRPTILSGSVGPVITLYIAIKAVPRSTQTPATKTFS”, the protein production result is reported as “failed”. In the case of “MLQSHIMAGNCTVKPARMTRAPYARHELKSTNSGCDESPAALERRVAELLLVADFGAVVGSILDPRQVCEVASSWLGETLGWQMLSVCCHDFSTGTMRGGAGRGRHLSKKRQEGATSTVFIAAAQKGLSDAADVRTIPFPDGSGTLSLSRQSLAESQYSDEFFGGVVENLARSLAAARECDRLKNLSMRDHLTGLYNRRVFEAMLEVEARKRTTKPFSLLLIDLDDFKRVNDTYGHGAGDQVLVAVAKMLRLSFRKSDVVSRYGGEEFGVLLPDTSQDSARVVAERFRQNVATLSLPVNKEKIMPTVSVGIASVTLRLGIEVADVIEEADRALYQAKVTGKNRVCSSLLGENS”, the protein production entry is recorded as “failed”. “MLQYILAEHPFFVATGALYAAAAGFYAAAWRSTRALVGRAATALLCAALAFNAGLIVERWIEAGRAPFKSLFESLVFFAFTTGVVYLAFERLYRTRVFGALAALLTLALLGYALGKWDAEIVKLPPALQSAWFVPHVVVYFVGYAAVSLAALLAAVQLLAPRVPLLQRLTTLRAGTILTGKALDLEQMTYELIRFGFVLLTVGLLVGSVWAKSAWGDFWVWDPKENWSLVTWLVYGAYLHLRKVRGWRGDRAAWLVLLGFAVVMFTYLGMSMLPTAEESAHVYTG”: the protein production result is reported as “failed”. “MLRAIYRALWWLVAPLAVLRLVWRSRKERGYREHIGERFGFGPGRALARRIDEATPVVWVHAVSVGETRAAQPLVDALLRARPDVHVLLTHMTPSGRATGEQIFGERVSRCYLPYDLPHAVRRFLRAWRPSLGLVMETEVWPTLIDECRRADVPLVLTNARMSARSFGRAAKFGAAAREVFGGFSRVLAQSPADAERLTALGARNVAVLGNLKFDMTTPPELAARGRAWRAAIGERPVWVAASTRDGEEALVLDAFAALRTPDALLILVPRHPQRFAEVAALVERRGLRHARRTEWAADAAAAAAGGPAAPALPPDVAVLLGDSMGELGAYYAAADVAFIGGSLLPLGGQNLIEACAVGVPVLIGPHVFNFTQATADAVTAGACAQVQDPADLARTLDALFADHARRAAMGAAGAAFAARHRGATARTVDVLNALLPPPRVASSANDEGEAGGLDAGTAID”: the protein production entry is listed as “failed”. In the case of “MLREAEVVVLGAGVAGLTLARLLWERGRKVLVVAEALGEASRPPVALVNPLRGRRFTLAEEGERALAAALAFYGRFVPLHLGVFRPVPEEDRPKVAGRLSRLKHRWEKEGVLLEEAFWLEPRPLLARLAEGLPLLRGRVLAWEPPWLVLEGGGRVRGEVLVYAGGGRGAHLLGLEGRHVPGLVLTLLDYFPRAVSYRVYLAGAALGGSYLPGEEGYRLPPPTEGEVEWLLQGAEALVGYRPRVASLWRGVRFRLSSFLFPVEGGFALTGFGSTGFLYAPLLAERLAERLLEHHHHHH”, the protein production entry is listed as “failed”. For the sequence “MLRGCGKLKKNLPCSVHTETPIVLKTTARFLLGLSLVLLSSSVATAQVVLPRTLELNAKEMEQNGFVVAQEALQLAQFQQFEDALVRAKLAVQLAPRAHEIWALLGGLYLTVNQPKDAVPALEQSLKLNDKNPGAYFNLGSAHFRLGRYDAAARAIEQGLALKPNATEEWFNLGNAYLKLGQKDRAIEQYRRSLRLDRRFWPAYTNIGLVLYEQGHIRQAVKNWEQAADIDPKASEPKLALATALLQLGNEARALQLAEEALRLDSRYGTVEFQRENLWGDRLVADTQILLAKPPLRALMSQLQPEQSALPQP”, the protein production result is on record as “failed”.

The record behind these values is a protein production outcome set (Wang et al. 2014).
